According to paper PMC6211770, “Structure-guided disruption of the pseudopilus tip complex inhibits the Type II secretion in Pseudomonas aeruginosa” (PLoS Pathogens, 2018):

Target: T1, XcpX (29–313), soluble form (P. aeruginosa, UniProt Q00518 29-313)
T1 construct: minor pseudopilin XcpX (GspK) of Pseudomonas aeruginosa, soluble form, residues 29-313; buffers with XcpX held 1 mM CaCl2; The XcpVWX complex was digested in situ with chymotrypsin before crystallisation; also called XcpX^(GspK); GspK; source: E. coli BL21 (DE3), purified (Ni2+-NTA, TEV digestion, Superdex 75); not shown: thioredoxin (Trx), N-terminal, cleaved
T1 sequence: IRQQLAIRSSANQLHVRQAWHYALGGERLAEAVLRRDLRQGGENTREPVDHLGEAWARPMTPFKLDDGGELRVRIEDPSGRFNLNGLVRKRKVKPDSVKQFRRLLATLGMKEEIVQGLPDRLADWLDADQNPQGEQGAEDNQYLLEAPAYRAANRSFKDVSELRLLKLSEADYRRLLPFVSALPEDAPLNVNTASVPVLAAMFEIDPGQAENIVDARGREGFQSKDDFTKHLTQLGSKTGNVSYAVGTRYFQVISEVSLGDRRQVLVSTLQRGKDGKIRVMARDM
Experiment: SAXS with inline SEC; XcpUVWX complex at 6.15 mg/ml in 25 mM HEPES pH 7.0, 150 mM NaCl, 5% glycerol, 2 mM DTT
Settings: both partners purified

B1: XcpV (28–129), soluble form (domain or fragment)
chain: SASARSLQNASRLEDKTLAMWIADNRLNELQLEQTPPSSGRNQGELEFAGRRWEWRTQVDSTAEQDMRRVIVWVAAKPLGRERGSIEERAAARLVGFLGSQP
notes: minor pseudopilin XcpV (GspI) of Pseudomonas aeruginosa, soluble form, residues 28-129; The XcpVWX complex was digested in situ with chymotrypsin before crystallisation; the chains in PDB 5VTM may be shorter; also called XcpV^(GspI); GspI; source: E. coli BL21 (DE3), purified (Ni2+-NTA, TEV digestion, Superdex 75); not shown: thioredoxin (Trx), N-terminal, cleaved
binding result: binds
